Results reported in the supplement of paper PMC10201428.
± gives the standard deviation of the averaged measurements.

How the values were obtained:
[1] = tested on: VchCAST RNA-guided transposition machinery (E. coli BL21(DE3) host, lacZ target); test: relative integration efficiency (T-RL orientation) vs wild-type transposon end (log2 (normalized fold change)); transposon end mutated: right end (5 bp flank + 75 bp right end); higher = more efficient transposition
In short: (§1)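 Barcoded pools of 1549 left-end or 1849 right-end transposon variants were cloned into a pUC57 mini-transposon donor. Each pool was co-transformed with a T7-driven effector plasmid (CRISPR array, tniQ-cas8-cas7-cas6, tnsA-tnsB-tnsC) into E. coli BL21(DE3) and plated with 0.1 mM IPTG at 37°C for 18 h. Input plasmids and genomic integration junctions were PCR-amplified and Illumina-sequenced, with two biological output replicates and four wild-type barcodes as reference. Relative integration efficiency is output/input barcode abundance fold change, normalised to wild-type barcodes and log-transformed.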

[2] = tested on: VchCAST RNA-guided transposition machinery (E. coli BL21(DE3) host, lacZ target); test: relative integration efficiency (T-LR orientation) vs wild-type transposon end (log2 (normalized fold change)); transposon end mutated: right end (5 bp flank + 75 bp right end); higher = more efficient transposition
In short: as §1

Sequence	relative integration efficiency (log2) [1]	relative integration efficiency (log2) [2]
ACATTTGTTGATACAACCATAAAATGGTAATTCCACCCCTACATTGATAATTATCACACCCAATTTAACTATAACGCTCTGATCATAGTCAGACCAACATTGCTACGACCCGTATTCGCACCGACAC	-3.92 ± 0.41	-0.604 ± 0.45
ACATTTGTTGATACAACCATAAAATGAGCCGTACACCCATAAATTGATAATTATCACACCCATAAATTGATATTGCCTCTGATCATAGTCAGACCAACATTGCTACGACCCGTATTCGCACCGACAC	-0.359 ± 0.21	-0.26 ± 0.5
ACATTTGTTGATACAACCCTAAAATGATAATTACACCCATAAATTGATCATTATCACCCCCAATTTAACTATAACGCTCTGATCATAGTCAGACCAACATTGCTACGACCCGTATTCGCACCGACAC	-2.81 ± 0.49	0.404 ± 0.19
ACATTTGTTGATACAACCATAAAGTGATATTTACAACCATAAGTTGATATTTTTCACAACCATATATTGATATCTCCTCTGATCATAGTCAGACCAACATTGCTACGACCCGTATTCGCACCGACAC	0.0944 ± 0.13	0.346 ± 0.17
ACATTGGTTGATACAACCATAAAATGATAATTACACCCATAAATTGATCATTATCACACCCAATTTAACTATAACGCTCTGATCATAGTCAGACCAACATTGCTACGACCCGTATTCGCACCGACAC	-7.17 ± 0.13	-6.54 ± 2
ACATTTGTTGATACAACCATAAAATGATAATTAGACCCCATAATTGATAATTATCACACCCATAAATTGATATTGCCTCTGATCATAGTCAGACCAACATTGCTACGACCCGTATTCGCACCGACAC	-3.4826 ± 0.0031	-3.27 ± 0.54
ACATTTGTTGATACAACCATAAAATGATAATTAATAATTATTTATAATCAGCAACTTAACCACACCCATAAATTGATAATTATCACACCCATAAATTGATATTGCCTCTGATCATAGTCAGACCAAC	-4.19 ± 0.29	-0.704 ± 0.18
ACATTTCTTGATACAACCATAAAATGATAATTACACCCATAAATTCATCATTATCACACCCAATTTAACTATAACGCTCTGATCATAGTCAGACCAACATTGCTACGACCCGTATTCGCACCGACAC	-2.84 ± 0.46	0.193 ± 0.077
ACATTTGTTGATACAACCATAAAATGGTAATTACACCCCTACATTGATAATTATCACACCCAATTTAACTATAACGCTCTGATCATAGTCAGACCAACATTGCTACGACCCGTATTCGCACCGACAC	-3.67 ± 0.066	-0.856 ± 0.38
ACATTTGTACTAACAACCATAAAATGATAATTACACCCATAAATTGATAATTATCACACCCATAAATTGATATTGCCTCTGATCATAGTCAGACCAACATTGCTACGACCCGTATTCGCACCGACAC	-1.43 ± 0.32	-4.23 ± 0.45
ACATTTGTTGATACAACCATAAAATCATCATTACCCCCATAAATTGATAATTATCCCACCCCATTTAACTATAACGCTCTGATCATAGTCAGACCAACATTGCTACGACCCGTATTCGCACCGACAC	-3.69 ± 0.077	-0.0125 ± 0.058
ACATTTGTTGATACAACCATAAAATGATCATTACCCCCATCAATTGATAATTATCCCACCCCATTTAACTATAACGCTCTGATCATAGTCAGACCAACATTGCTACGACCCGTATTCGCACCGACAC	-3.97 ± 0.23	-0.338 ± 0.22
ACATTTGTTGATACAACCATAAAATGATAATTACACCCATATTTTGATAATTATCACACCCATAAATTGATATTGCCTCTGATCATAGTCAGACCAACATTGCTACGACCCGTATTCGCACCGACAC	-0.188 ± 0.015	0.00197 ± 0.1
ACATTTGTTGATACAACCATAAAATGATAATTCCACCCCTAAATTGATAATTATCACACCCAATTTAACTATAACGCTCTGATCATAGTCAGACCAACATTGCTACGACCCGTATTCGCACCGACAC	-3.1 ± 0.3	-0.0192 ± 0.33
ACATTGGTTCATACAACCATAAAATGATAATTACACCCATAAATTCATCATTATCACACCCAATTTAACTATAACGCTCTGATCATAGTCAGACCAACATTGCTACGACCCGTATTCGCACCGACAC	-7.13 ± 0.28	-6.18 ± 1.9
ACATTTGTTGATACAACCATAAAATGATAATTACAACCATAAGTTGATATTTTTCACACCCATAAATTGATAATTACTCTGATCATAGTCAGACCAACATTGCTACGACCCGTATTCGCACCGACAC	-0.168 ± 0.11	-0.141 ± 0.51
ACATTTGTTCATACAACCATAAAACGATAATTACACCCATAAATTCATAATTATCACACCCAATTTAACTATAACGCTCTGATCATAGTCAGACCAACATTGCTACGACCCGTATTCGCACCGACAC	-3 ± 0.52	-0.844 ± 0.015
ACATTTGTTGATACCCCCATAAAATGATAATTACACCCATAAATTGATAATTATCACACCCATAAATTGATATTGCCTCTGATCATAGTCAGACCAACATTGCTACGACCCGTATTCGCACCGACAC	-0.828 ± 0.081	-0.879 ± 0.24
ACATTTGTTGATACAACCATACCCGGATAATTACACCCATAAATTGATAATTATCACACCCATAAATTGATATTGCCTCTGATCATAGTCAGACCAACATTGCTACGACCCGTATTCGCACCGACAC	-3.77 ± 0.26	-4.39 ± 0.99
ACATTTGTTCATCCAACCATAAAATGATAATTACACCCATAAATTGATCATTATCACACCCAATTTAACTATAACGCTCTGATCATAGTCAGACCAACATTGCTACGACCCGTATTCGCACCGACAC	-2.44 ± 0.32	0.101 ± 0.12
ACATTTGTTGATACAACCATCAAATGATAATTCCACCCCTAAATTGATAATTATCACACCCAATTTAACTATAACGCTCTGATCATAGTCAGACCAACATTGCTACGACCCGTATTCGCACCGACAC	-3.65 ± 0.074	-1.01 ± 0.31
ACATTTGTTGATACAACCCTAAAATGATAATTACACCCATAAATGGATCATTATCACACCCAATTTAACTATAACGCTCTGATCATAGTCAGACCAACATTGCTACGACCCGTATTCGCACCGACAC	-3.87 ± 0.32	-1.52 ± 0.39
ACATTTGTTGATACAACCATAAAATCATCATTACACCCATCAATTGATAATTATCACACCCCATTTAACTATAACGCTCTGATCATAGTCAGACCAACATTGCTACGACCCGTATTCGCACCGACAC	-4.88 ± 0.26	-1.24 ± 0.14
ACATTTGTTGTATGAACCATAAAATGATAATTACACCCATAAATTGATAATTATCACACCCATAAATTGATATTGCCTCTGATCATAGTCAGACCAACATTGCTACGACCCGTATTCGCACCGACAC	-0.782 ± 0.022	-2.29 ± 0.23
ACATTTGTTGATACAACCATAAAATGATAAAAACACCCATAAATTGATAATTATCACACCCATAAATTGATATTGCCTCTGATCATAGTCAGACCAACATTGCTACGACCCGTATTCGCACCGACAC	-0.347 ± 0.089	-0.253 ± 0.4
ACATTTGTAGATAAAACCATACGTTGATTTTACGAAACCATACGCTGAAATAATCACACCCATAAATTGATATTGCCTCTGATCATAGTCAGACCAACATTGCTACGACCCGTATTCGCACCGACAC	-6.57 ± 0.4	-5.26 ± 0.89
ACATTTCATGATACAACCATAAAATGATAATTACACCCATAAATTGATAATTATCACACCCATAAATTGATATTGCCTCTGATCATAGTCAGACCAACATTGCTACGACCCGTATTCGCACCGACAC	-4.85 ± 0.79	-5.68 ± 0.91
